# Where a chain is given by its changes, count along the chain named.
# B1: Mint3 fragment (1-92) (domain or fragment, human, UniProt O96018 1-92, looked up)
# chain: MDFPTISRSPSGPPAMDLEGPRDILVPSEDLTPDSQWDPMPGGPGSLSRMELDESSLQELVQQFEALPGDLVGPSPGGAPCPLHIATGHGLA
# notes: human Mint3 (X11gamma/APBA3), residues 1-92; source: E. coli BL21 (DE3), purified (mutants/fragments of Mint3 prepared as Mint3NT)
# B2: Mint3 fragment (1–92) (domain or fragment, human, UniProt O96018 1-92, looked up)
# chain: B1 chain
# notes: source: E. coli BL21 (DE3), purified (mutants/fragments prepared as Mint3NT)
# B3: Mint3(1–117), N-terminal half of Mint3NT (domain or fragment, human, UniProt O96018 1-117, looked up)
# chain: MDFPTISRSPSGPPAMDLEGPRDILVPSEDLTPDSQWDPMPGGPGSLSRMELDESSLQELVQQFEALPGDLVGPSPGGAPCPLHIATGHGLASQEIADAHGLLSAEAGRDDLLGLLH
# notes: as for B2
# B4: Mint3NT, N-terminal fragment (1-214) of Mint3 (domain or fragment, human, UniProt O96018 1-214, looked up)
# chain: MDFPTISRSPSGPPAMDLEGPRDILVPSEDLTPDSQWDPMPGGPGSLSRMELDESSLQELVQQFEALPGDLVGPSPGGAPCPLHIATGHGLASQEIADAHGLLSAEAGRDDLLGLLHCEECPPSQTGPEEPLEPAPRLLQPPEDPDEDSDSPEWVEGASAEQEGSRSSSSSPEPWLETVPLVTPEEPPAGAQSPETLASYPAPQEVPGPCDHED
# notes: human Mint3 (X11gamma/APBA3), residues 1-214; also called 1-214 (NT); Mint3(1-214); source: E. coli BL21 (DE3), purified (Ni-NTA, SEC; monomer fraction)
# B5: Mint3NT, N-terminal fragment (1–214) of Mint3 (domain or fragment, human, UniProt O96018 1-214, looked up)
# chain: B4 chain
# notes: Mint3 (X11γ/APBA3), human, N-terminal fragment, residues 1-214; Uniformly 15N-labelled (M9 medium) for the NMR titration; No cleavage site is told for the C-terminal His6 tag; also called Mint3(1–214); 15N-Mint3NT; source: E. coli BL21 (DE3), purified (Ni-NTA, SEC; monomer fraction collected)
# B6: Mint3NTmut, Mint3NT (1–214) with the mutations … → AAASAAAGRD (domain or fragment, human, UniProt O96018 1-214, looked up)
# chain: B4 chain with G101A, L102A, L103A, E106A
# notes: as for B2
# B7: short peptide of Mint3 (93–117) (peptide, UniProt O96018 93-117, looked up)
# chain: SQEIADAHGLLSAEAGRDDLLGLLH
# notes: The methods say only that mutants/fragments of Mint3 were prepared as Mint3NT (E. coli, C-terminal His6); the results call this a peptide and speak of synthesis for the peptide 78-88, so it may be synthetic
# Experiments:
# Settings in all cases: both partners purified
# [1] = molecular target: T1, factor inhibiting HIF-1 (FIH-1) (human, UniProt Q9NWT6 1-349); experiment: ITC; Mint3 construct in the syringe (150 μM, 25 injections of 1.5 μl) titrated into 30 μM FIH-1 in the cell; 25 °C; 35 mM Na-phosphate pH 7.5, 300 mM NaCl, 500 μM αKG; single set of sites model
# T1 construct: N-terminal His6 tag and TEV site (ENLYFQ) cleaved with TEV protease; Dimer by SEC and SEC-MALS (about 80 kDa); also called FIH-1 WT; source: E. coli BL21 (DE3), purified (Ni-NTA, TEV cleavage, SEC); not shown: His6, N-terminal, cleaved
# T1 sequence (Q9NWT6 whole entry): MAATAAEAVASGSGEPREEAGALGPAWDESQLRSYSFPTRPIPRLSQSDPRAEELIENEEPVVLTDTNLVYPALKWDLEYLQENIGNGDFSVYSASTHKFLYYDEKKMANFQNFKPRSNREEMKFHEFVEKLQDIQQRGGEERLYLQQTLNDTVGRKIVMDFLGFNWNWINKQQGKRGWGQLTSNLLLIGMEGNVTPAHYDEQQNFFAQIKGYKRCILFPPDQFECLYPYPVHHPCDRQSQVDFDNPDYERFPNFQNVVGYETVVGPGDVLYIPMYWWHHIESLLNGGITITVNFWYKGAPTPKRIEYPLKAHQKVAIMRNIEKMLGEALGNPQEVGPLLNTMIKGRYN
# [2] = molecular target: T2, factor inhibiting HIF-1 (FIH-1), full-length (human, UniProt Q9NWT6 1-349); experiment: ITC; MicroCal iTC200, 25 °C; 150 μM Mint3 in the syringe, 30 μM FIH-1 in the cell, 25 injections of 1.5 μl; 35 mM Na-phosphate pH 7.5, 300 mM NaCl, 500 μM αKG; single set of sites model; for Figure 4 also in the absence of αKG and/or with EDTA
# T2 construct: Dimer by SEC and SEC-MALS; The TEV site ENLYFQ lay between the His6 tag and FIH-1; also called FIH-1 WT; source: E. coli BL21 (DE3), purified (Ni-NTA, TEV cleavage, SEC); not shown: His6, N-terminal, cleaved
# T2 sequence (Q9NWT6 whole entry): as above
# FIH-1 Y71A = molecular target: T3, FIH-1 Y71A (human, UniProt Q9NWT6 1-349, Tyr71 replaced with Ala); experiment: as above
# T3 construct: also called Tyr71 replaced with Ala; source: E. coli BL21 (DE3), purified (mutants prepared as FIH-1); not shown: His6, N-terminal, cleaved
# T3 sequence (Q9NWT6 whole entry Y71A): as the sequence (Q9NWT6 whole entry) above, with Y71A counted along it
# FIH-1 K75A = molecular target: T4, FIH-1 K75A (human, UniProt Q9NWT6 1-349, Lys75 replaced with Ala); experiment: as above
# T4 construct: also called Lys75 replaced with Ala; source: E. coli BL21 (DE3), purified (mutants prepared as FIH-1); not shown: His6, N-terminal, cleaved
# T4 sequence (Q9NWT6 whole entry K75A): as the sequence (Q9NWT6 whole entry) above, with K75A counted along it
# FIH-1 E79A = molecular target: T5, FIH-1 E79A (human, UniProt Q9NWT6 1-349, Glu79 replaced with Ala); experiment: as above
# T5 construct: also called Glu79 replaced with Ala; source: E. coli BL21 (DE3), purified (mutants prepared as FIH-1); not shown: His6, N-terminal, cleaved
# T5 sequence (Q9NWT6 whole entry E79A): as the sequence (Q9NWT6 whole entry) above, with E79A counted along it
# FIH-1 N171A = molecular target: T6, FIH-1 N171A (human, UniProt Q9NWT6 1-349, Asn171 replaced with Ala); experiment: as above
# T6 construct: also called Asn171 replaced with Ala; source: E. coli BL21 (DE3), purified (mutants prepared as FIH-1); not shown: His6, N-terminal, cleaved
# T6 sequence (Q9NWT6 whole entry N171A): as the sequence (Q9NWT6 whole entry) above, with N171A counted along it
# FIH-1 E29A = molecular target: T7, FIH-1 E29A (human, UniProt Q9NWT6 1-349, Glu29 replaced with Ala); experiment: as above
# T7 construct: also called Glu29 replaced with Ala (negative control); source: E. coli BL21 (DE3), purified (mutants prepared as FIH-1); not shown: His6, N-terminal, cleaved
# T7 sequence (Q9NWT6 whole entry E29A): as the sequence (Q9NWT6 whole entry) above, with E29A counted along it
# FIH-1 D248A = molecular target: T8, FIH-1 D248A (human, UniProt Q9NWT6 1-349, Asp248 replaced with Ala); experiment: as above
# T8 construct: also called Asp248 replaced with Ala (negative control); source: E. coli BL21 (DE3), purified (mutants prepared as FIH-1); not shown: His6, N-terminal, cleaved
# T8 sequence (Q9NWT6 whole entry D248A): as the sequence (Q9NWT6 whole entry) above, with D248A counted along it
# FIH-1 E250A = molecular target: T9, FIH-1 E250A (human, UniProt Q9NWT6 1-349, Glu250 replaced with Ala); experiment: as above
# T9 construct: also called Glu250 replaced with Ala (negative control); source: E. coli BL21 (DE3), purified (mutants prepared as FIH-1); not shown: His6, N-terminal, cleaved
# T9 sequence (Q9NWT6 whole entry E250A): as the sequence (Q9NWT6 whole entry) above, with E250A counted along it
binder,measurement,setting,value
B1,Kd,[1],9000 ± 900 nM
B2,stoichiometry N,[2],~0.5
B3,Kd,[2],650 ± 70 nM
same,dH relative to Mint3NT,[2],~0.5
same,stoichiometry N,[2],~0.5
B4,Kd,[1],520 ± 20 nM
B5,binding result,FIH-1 Y71A,binds
same,binding result,FIH-1 K75A,binds
same,binding result,FIH-1 E79A,binds
same,binding result,FIH-1 N171A,binds
same,binding result,FIH-1 E29A,binds
same,binding result,FIH-1 D248A,binds
same,dH,[2],-32.2 ± 0.7 kcal/mol
same,stoichiometry N,[2],0.48 ± 0.02
same,binding result,FIH-1 E250A,binds
B6,Kd,[2],1310 nM
same,dH,[2],-13.9 kcal/mol
same,stoichiometry N,[2],~0.5
B7,Kd,[2],3000 ± 600 nM
same,stoichiometry N,[2],~0.5
